Results reported in patent US20090214524A1.

Target: Bub3 (UniProt O43684)
Test: cell-based or functional assay

Sequence of UniProt O43684 (O43684 whole entry): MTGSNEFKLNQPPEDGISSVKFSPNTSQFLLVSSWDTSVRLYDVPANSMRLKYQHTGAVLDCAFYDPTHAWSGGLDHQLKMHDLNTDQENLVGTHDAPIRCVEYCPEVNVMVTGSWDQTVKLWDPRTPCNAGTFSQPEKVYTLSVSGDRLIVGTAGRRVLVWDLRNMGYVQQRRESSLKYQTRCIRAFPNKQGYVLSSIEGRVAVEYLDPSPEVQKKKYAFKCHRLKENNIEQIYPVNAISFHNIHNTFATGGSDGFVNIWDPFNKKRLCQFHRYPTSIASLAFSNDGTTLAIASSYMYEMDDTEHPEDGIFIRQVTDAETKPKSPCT

restoration of colcemid-mediated mitotic checkpoint arrest (BrdU incorporation) in T98G cells depleted of endogenous BubR1: 50%
Substance: myc-tagged siRNA-resistant wild type BubR1 (pcDNA3-myc-BubR1^ΔsiRNA) (from UniProt O60566 1-1050)
